We go through 11 sequences from the DeepSol protein solubility set.

The data set in a line: soluble on expression in E. coli; label from the status in PepcDB or PDB records.
Turning to “MFTGIIEETGTIESMKKAGHAMALTIKCSKILEDVHLGDSIAVNGICLTVTDFTKNQFTVDVMPETVKATSLNDLTKGSKVNLERAMAANGRFGGHFVSGHVDGTAEITRIEEKSNAVYYDLKMDPSLTKTLVLKGSITVDGVSLTIFGLTEDTVTISLIPHTISETIFSEKTIGSKVNIECDMIGKYMYRFLHKANENKTQQTITKAFLSENGF”, the “soluble on expression in E. coli” value is “soluble”.

Turning to “MFTKSGDDGNTNVINKRVGKDSPLVNFLGDLDELNSFIGFAISKIPWEDMKKDLERVQVELFEIGEDLSTQSSKKKIDEKYVKWLEERTVEYRKESGPVKLFVIPGGSEEASVLHVTRSVARRVERNAVKYTKELPEINRMIIVYLNRLSSLLFAMALVANKRRNVSEKIYDIGKFW”, the “soluble on expression in E. coli” value is “soluble”.

On to “MFTYSLNLKLKTDRNFFGPGVVEVLQKIQQTGSLNLAAKEMKMSYNKAWRIVRVAEEELSFPLIIKSVGGCNGGGSIVTDQGKELIDQYLLFEKKVYQQVEACFEEIFKEQDVVSEELK”, for which the “soluble on expression in E. coli” value was “not soluble”.

In the case of “MFVRTAVVLLLVASTAYTFVAPPSQATLACITCVATVKGVEAKMLHEGGNVAKHDVDAICLKEVPTHSAEHLCEEYGEHEVDVMVTLIKQDVPPKMICQELQKC”, the “soluble on expression in E. coli” value is given as “not soluble”.

Consider “MFYITSKKVPFVTYSKNVFIPVTNICRNQCGYCGFRREPGQPGARLMKPEEVISVLENGVRAGCTEALFTFGERAEEVPGYGEMLEEIGYSSTLEYLVFLCETAIDIGILPHTNAGIMTRSELEALKPLNASMGLMLESTAVLAAHKDCPGKIPERRLETIREAGKLKIPYTTGLLIGIGESRDDRIESLEAIAALHREYGHIQEVIIQNFAPKPGTEMENFPEPAVEEMMDSVELAARILPGDVAVQVAPNLIDPKSLIAKGVTDLGGISPLTIDWINPEAEWPDVKNLQKKLGDIPLKERLPVYPPYVKKGWYSERIGSLIKRLSDNSGYLEHHHHHH”, for which the “soluble on expression in E. coli” value was “not soluble”.

Turning to “MGACRRIFKNYEPCELTICVTIICEPRSPPKFDHWKISKPGCPPKIISCSKATNNDVNREKRSRRKLVKKRTPSEVIEKLEEQEGSENCENVPFDKPLLHSDSATLICDEVATSRSPFEISTNEVENVDIQSEPRDRHVSITSMESVAGLGEADDQDDVTILKGLEEVHEIEVDKTVIEESIPNQPKGQRFDLLSNGDVTIPAMIMNDVDGPKKKLLVRRKKKSKTPDSPPQYRDYTETSIYMYIEMDKQNVGEFVWDQQCTRIDALVAPIVELDRMTTPEIPLEIELFD”, the “soluble on expression in E. coli” value is given as “not soluble”.

Turning to “MGATLTVAVAACTVSTPTSAIPVTHIKCLRINGQIKCVKPISPNTTPAAEHIEHVRKNPRRKAAMDRAAARIADKIALKAGGETFVSLRMKKGFTQSELATAAGLPQPYLSRIENSKQSLQDKTVQKLANALGVSPLEVRAAFERRYEYMEQA”, the “soluble on expression in E. coli” value is given as “soluble”.

With “MGAVSAFSWASSGRLHALEVFVMKIPKTYDEIMEHFGGLIDEVTAELLESYAKGETVRVSEALAKSGRVAVEGVVLRVFPVRHFSKNGRSGKVGSVVIQDDCTVRVNFWNEAAEIIEAGDIVEGARIKVRGYARGEEIHVNSLSEVEVFVDFVNISELDEKVGERVNVKGFVSGLGEPEKANEIYISDETGRVKVLLENESLYYAVDIGSYVEIYNALAGEDGIYVDRNSRFSVGE”, the “soluble on expression in E. coli” value was “soluble”.

For the sequence “MGDRFDSARHRVEAAAIKAFAGEFDPQPFHLDEEAARHSLFGGLAASGWHTAAITMRLLVTSGLPLAQGIIGAGTELSWPNPTRPGDELHVETTVLAITPSKSRPDRAIVTCQSDTLNQRGEVVQRSTAKVVVFRRPLEHHHHHH”, the “soluble on expression in E. coli” value is listed as “not soluble”.

On to “MGEHKNCKCNRWVISLQAAFDRDDFEKLFRKAVQSITEEEFQRIPEFRHREDALACLFGRLLLRHSAQKFSGEPWNTIRFERTERGKPFLAVPADTTFGLNVSHQGDYVAFASSCSSKVGVDVMRLDNERNNKTADEYINSMAKSASPEELRMMRSQPTEAMKMTMFYRYWCLKEAILKATGVGIMKDLNSLDFRVNLQDRYRPGAFVTSTTVLEDGRLQDQWIFEETFVDAKHSAAVCKEKKLPRECVFRQDPEAKIFFSKITFESLLENAEITNPMPNNAADIFEEFMAKPKKTF”, for which the “soluble on expression in E. coli” value is given as “not soluble”.

As to “MGEITQYSVSPALPAGLAIDPQTGVITGTPTAVTASAVYTVTGANSVDSVQALLTIEVAAVAVPPVGLVYVDRLPEYIVGVPITYNEPAYTGGEVTQFSISPALPAGLTLNTQSGVISGTPTVELAQTTFFITASNSAGLEHHHHHH”, the “soluble on expression in E. coli” value is on record as “not soluble”.
